Biological target: GST-tagged NbSAMS2 (GST-NbSAMS2) (N. benthamiana)

Substance: GST-C4 (natural protein)
- NbSAMS2 enzymatic activity in vitro (conversion of 35S-Met to 35S-SAM, TLC) after pre-incubation with varying amounts of GST-C4; reduction of activity at an 8:1 molar ratio of C4:NbSAMS2: 80%
